Source: the Human Domainome abundance scans (Beltran et al. 2025)
± gives the uncertainty stated by the source.

Experiment: abundance fitness (aPCA) (normalised: wild type 0, dead -1); higher = more abundant; growth selection in yeast, the domain comes from the species named
Settings: Homo sapiens
Substance “Transcriptional activator Myb Q200T, P10242” has an abundance fitness of -0.135 ± 0.072.
“Transcriptional activator Myb Q200V, P10242” showed an abundance fitness of -0.087 ± 0.074.
With “Transcriptional activator Myb Q200W, P10242” the abundance fitness was -0.345 ± 0.094.
In the case of “Transcriptional activator Myb Q200Y, P10242”, the abundance fitness is reported as -0.259 ± 0.12.
“Transcriptional activator Myb R153C, P10242” gave an abundance fitness of -0.451 ± 0.098.
Work on “Transcriptional activator Myb R153D, P10242” yielded an abundance fitness of -0.25 ± 0.095.
“Transcriptional activator Myb R153E, P10242” showed an abundance fitness of -0.144 ± 0.079.
In the case of “Transcriptional activator Myb R153F, P10242”, the abundance fitness is reported as -0.068 ± 0.094.
In the case of “Transcriptional activator Myb R153I, P10242”, the abundance fitness is reported as -0.284 ± 0.13.
Substance “Transcriptional activator Myb R153L, P10242” has an abundance fitness of -0.098 ± 0.073.
For “Transcriptional activator Myb R153M, P10242”, the abundance fitness was -0.11 ± 0.11.
“Transcriptional activator Myb R153N, P10242” gave an abundance fitness of 0.02 ± 0.13.
Substance “Transcriptional activator Myb R153P, P10242” has an abundance fitness of -1.12 ± 0.18.
“Transcriptional activator Myb R153Q, P10242” gave an abundance fitness of -0.031 ± 0.092.
With “Transcriptional activator Myb R153S, P10242” the abundance fitness was -0.121 ± 0.06.
With “Transcriptional activator Myb R153T, P10242” the abundance fitness was -0.125 ± 0.14.
In the case of “Transcriptional activator Myb R153V, P10242”, the abundance fitness is reported as -0.199 ± 0.084.
“Transcriptional activator Myb R153Y, P10242” gave an abundance fitness of -0.084 ± 0.11.
With “Transcriptional activator Myb R176A, P10242” the abundance fitness was -0.217 ± 0.065.
For “Transcriptional activator Myb R176C, P10242”, the abundance fitness was -0.148 ± 0.12.
In the case of “Transcriptional activator Myb R176D, P10242”, the abundance fitness is reported as -0.66 ± 0.14.
“Transcriptional activator Myb R176E, P10242” gave an abundance fitness of -0.677 ± 0.11.
“Transcriptional activator Myb R176F, P10242” showed an abundance fitness of -0.733 ± 0.25.
With “Transcriptional activator Myb R176G, P10242” the abundance fitness was -0.728 ± 0.062.
For “Transcriptional activator Myb R176H, P10242”, the abundance fitness was 0.043 ± 0.16.
Work on “Transcriptional activator Myb R176I, P10242” yielded an abundance fitness of -0.225 ± 0.16.
Substance “Transcriptional activator Myb R176K, P10242” has an abundance fitness of -0.022 ± 0.097.
Substance “Transcriptional activator Myb R176L, P10242” has an abundance fitness of -0.423 ± 0.074.
“Transcriptional activator Myb R176M, P10242” gave an abundance fitness of -0.584 ± 0.11.
For “Transcriptional activator Myb R176N, P10242”, the abundance fitness was -0.905 ± 0.2.
“Transcriptional activator Myb R176P, P10242” gave an abundance fitness of -0.87 ± 0.15.
Work on “Transcriptional activator Myb R176Q, P10242” yielded an abundance fitness of -0.513 ± 0.16.
Substance “Transcriptional activator Myb R176S, P10242” has an abundance fitness of -0.457 ± 0.072.
In the case of “Transcriptional activator Myb R176T, P10242”, the abundance fitness is reported as -0.223 ± 0.096.
“Transcriptional activator Myb R176V, P10242” showed an abundance fitness of -0.22 ± 0.066.
“Transcriptional activator Myb R176W, P10242” gave an abundance fitness of -0.436 ± 0.064.
With “Transcriptional activator Myb R176Y, P10242” the abundance fitness was -0.651 ± 0.14.
With “Transcriptional activator Myb R190A, P10242” the abundance fitness was -0.023 ± 0.07.
Substance “Transcriptional activator Myb R190C, P10242” has an abundance fitness of -0.117 ± 0.18.
For “Transcriptional activator Myb R190D, P10242”, the abundance fitness was -0.073 ± 0.13.
“Transcriptional activator Myb R190E, P10242” gave an abundance fitness of -0.161 ± 0.093.
With “Transcriptional activator Myb R190F, P10242” the abundance fitness was 0.009 ± 0.13.
For “Transcriptional activator Myb R190H, P10242”, the abundance fitness was -0.189 ± 0.17.
